Data reported in patent US20170129940A1.

Legend:
Details in all cases: remark: other sources report otherwise
[1] = biological target: T1, hCMV gH + gL + UL128 + UL130 + UL131A (co-expressed in HEK293T cells) (human cytomegalovirus), P12824; assay: competitor: 1F11-biotin; cell staining
[2] = biological target: T1, hCMV gH + gL + UL128 + UL130 + UL131A …; assay: competitor: 8I21-biotin; cell staining
[3] = biological target: T1, hCMV gH + gL + UL128 + UL130 + UL131A …; assay: competitor: 8C15-biotin; cell staining
[4] = biological target: T1, hCMV gH + gL + UL128 + UL130 + UL131A …; assay: competitor: 4I22-biotin; cell staining
[5] = biological target: T1, hCMV gH + gL + UL128 + UL130 + UL131A …; assay: competitor: 9I6-biotin; cell staining
[6] = biological target: T1, hCMV gH + gL + UL128 + UL130 + UL131A …; assay: competitor: 8J16-biotin; cell staining
[7] = biological target: T1, hCMV gH + gL + UL128 + UL130 + UL131A …; assay: competitor: 2C12-biotin; cell staining
[8] = biological target: T1, hCMV gH + gL + UL128 + UL130 + UL131A …; assay: competitor: 2F4-biotin; cell staining
[9] = biological target: T1, hCMV gH + gL + UL128 + UL130 + UL131A …; assay: competitor: 6G4-biotin; cell staining
[10] = biological target: T1, hCMV gH + gL + UL128 + UL130 + UL131A …; assay: competitor: 5A2-biotin; cell staining
[11] = biological target: T1, hCMV gH + gL + UL128 + UL130 + UL131A …; assay: competitor: 4N10-biotin; cell staining
[12] = biological target: T1, hCMV gH + gL + UL128 + UL130 + UL131A …; assay: competitor: 15D8-biotin; cell staining
[13] = biological target: T1, hCMV gH + gL + UL128 + UL130 + UL131A …; assay: competitor: 10F7-biotin; cell staining

Binder | Inhibition of binding (%) [1] | Inhibition of binding (%) [2] | Inhibition of binding (%) [3] | Inhibition of binding (%) [4] | Inhibition of binding (%) [5] | Inhibition of binding (%) [6] | Inhibition of binding (%) [7] | Inhibition of binding (%) [8] | Inhibition of binding (%) [9] | Inhibition of binding (%) [10] | Inhibition of binding (%) [11] | Inhibition of binding (%) [12] | Inhibition of binding (%) [13]
9I6 (antibody, V domains shown) VH: EVQLVQSGAEVKKPGESLKISCRESGDTFPAYWIAWVRQMPGKGLEWMGIIYPIDSETTYSPSFQGQVTISADKSINTAYLQWSSLKASDSAIYYCARGTSTGLREAFHIWGQGTMVTVSS VL: DVVMTQSPLSLAVTLGQPAYISCRSSQSLGYSDGNTYLNWFQQRPGQSPRRLIYEVSNRDSGVPDRFSGSGSGTDFTLKISRVEAEDVGTYYCMQGTHWPPMCSFGQGTKLEIK | 0% | 0% | 100% | 0% | 100% | 100% | 100% | 0% | 100% | – | – | – | –
2C12 (antibody, V domains shown) VH: QITLRESGPTLVKPTQTLTLTCTFSGFSLNTNGVGVGWIRQPPGKALEWLALIYWNGNEGYSPSLKSRLTITKDTSKNQVVLTMTNMDPVDTATYYCVHWPQGLTTVTRLAFDIWGQGTMVTVSS VL: QSALTQPRSVSGSPGQSVTISCTGTTSDVGRYNFVSWYQQHPGKAPKLLMYDVSQRPSGVPSRFSGSKSGNTASLTISGLQAEDEAVFYCCSYAGGNFFSYVFGTGTKVTVL | 0% | 0% | 100% | 0% | 100% | 100% | 100% | 0% | 100% | 0% | 0% | 0% | 0%
